From patent publication US20240279318A1 (NANJING LEGEND BIOTECH, published 2024)
Values belong to the binder of their own block, whether it stands above or below them.

How the values were obtained:
[1] = target: T1, AFP158/HLA-A*02:01 complex (human); experiment: SPR, scFv captured, pMHC in flow;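 note: complex injected at several concentrations over crude scFv, association then running-buffer dissociation, KD estimated from kinetic on- and off-rate constants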
T1 construct: flowed over the chip in SPR; also called AFP158 pro

[2] = target: T1, AFP158/HLA-A*02:01 complex; experiment: SPR, KD ratio to AS170036 VL1VH1;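 note: crude scFv captured on a sensor chip, peptide–HLA complex passed over at several concentrations, association then buffer dissociation, KD derived from on- and off-rates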
Protocol: The experiment was carried out as follows. The crude scFv protein were captured onto the sensorchip. Different concentrations (320, 160, 40 nM) of AFP158/HLA-A*02:01 complex flowed over the sensorchip surface, and were allowed to bind the antibody fragment for 100 s followed by injection of the running buffer to allow dissociation of the complex. On-rate (kd) and off-rate (kd) were calculated based on association and dissociation curve, and were used to estimate the equilibrium dissociation constant (KD).

B1: LE32L (scFv)
scFv: QSALTQPRSVSGSPGQSVTISCAGTSSDVGSLNYVSWYQQHPGKAPKLMIYQVNKRASGVPDRFSGSKSGNTASLTISGLQAEDEADYYCASYRSSDHNIVFGGGTKLTVLGGGGSGGGGSGGGGSEVQLVESGGGLVQPGGSLRLSCAASGFTFSSYAMSWVRQAPGKGLEWVSTINSGTGSPYYADSVKGRFTISRDNSKNTLYLQMNSLRAEDTAVYYCAKNFFDGSWFLGPPAMDYWGQGTLVTVSSHHHHHH
notes: AS170036 VL1VH1 scFv mutein
Kd [1]: 980 nM | Affinity increase [2]: 0.3 fold

B3: LE32M (scFv)
scFv: QSALTQPRSVSGSPGQSVTISCAGTSSDVGSMNYVSWYQQHPGKAPKLMIYQVNKRASGVPDRFSGSKSGNTASLTISGLQAEDEADYYCASYRSSDHNIVFGGGTKLTVLGGGGSGGGGSGGGGSEVQLVESGGGLVQPGGSLRLSCAASGFTFSSYAMSWVRQAPGKGLEWVSTINSGTGSPYYADSVKGRFTISRDNSKNTLYLQMNSLRAEDTAVYYCAKNFFDGSWFLGPPAMDYWGQGTLVTVSSHHHHHH
notes: AS170036 VL1VH1 scFv mutein
Kd [1]: 590 nM | Affinity increase [2]: 0.4 fold

B4: LY34A (scFv)
scFv: QSALTQPRSVSGSPGQSVTISCAGTSSDVGSENAVSWYQQHPGKAPKLMIYQVNKRASGVPDRFSGSKSGNTASLTISGLQAEDEADYYCASYRSSDHNIVFGGGTKLTVLGGGGSGGGGSGGGGSEVQLVESGGGLVQPGGSLRLSCAASGFTFSSYAMSWVRQAPGKGLEWVSTINSGTGSPYYADSVKGRFTISRDNSKNTLYLQMNSLRAEDTAVYYCAKNFFDGSWFLGPPAMDYWGQGTLVTVSSHHHHHH
notes: AS170036 VL1VH1 scFv mutein
Kd [1]: 1700 nM | Affinity increase [2]: 0.1 fold

B5: LE32P (scFv)
scFv: QSALTQPRSVSGSPGQSVTISCAGTSSDVGSPNYVSWYQQHPGKAPKLMIYQVNKRASGVPDRFSGSKSGNTASLTISGLQAEDEADYYCASYRSSDHNIVFGGGTKLTVLGGGGSGGGGSGGGGSEVQLVESGGGLVQPGGSLRLSCAASGFTFSSYAMSWVRQAPGKGLEWVSTINSGTGSPYYADSVKGRFTISRDNSKNTLYLQMNSLRAEDTAVYYCAKNFFDGSWFLGPPAMDYWGQGTLVTVSSHHHHHH
notes: AS170036 VL1VH1 scFv mutein
Kd [1]: 1400 nM | Affinity increase [2]: 0.2 fold

B6: LY34E (scFv)
scFv: QSALTQPRSVSGSPGQSVTISCAGTSSDVGSENEVSWYQQHPGKAPKLMIYQVNKRASGVPDRFSGSKSGNTASLTISGLQAEDEADYYCASYRSSDHNIVFGGGTKLTVLGGGGSGGGGSGGGGSEVQLVESGGGLVQPGGSLRLSCAASGFTFSSYAMSWVRQAPGKGLEWVSTINSGTGSPYYADSVKGRFTISRDNSKNTLYLQMNSLRAEDTAVYYCAKNFFDGSWFLGPPAMDYWGQGTLVTVSSHHHHHH
notes: AS170036 VL1VH1 scFv mutein
Kd [1]: 1400 nM | Affinity increase [2]: 0.2 fold

B8: LH98D (scFv)
scFv: QSALTQPRSVSGSPGQSVTISCAGTSSDVGSENYVSWYQQHPGKAPKLMIYQVNKRASGVPDRFSGSKSGNTASLTISGLQAEDEADYYCASYRSSDDNIVFGGGTKLTVLGGGGSGGGGSGGGGSEVQLVESGGGLVQPGGSLRLSCAASGFTFSSYAMSWVRQAPGKGLEWVSTINSGTGSPYYADSVKGRFTISRDNSKNTLYLQMNSLRAEDTAVYYCAKNFFDGSWFLGPPAMDYWGQGTLVTVSSHHHHHH
notes: AS170036 VL1VH1 scFv mutein
Kd [1]: 1100 nM | Affinity increase [2]: 0.2 fold

B9: LE32V (scFv)
scFv: QSALTQPRSVSGSPGQSVTISCAGTSSDVGSVNYVSWYQQHPGKAPKLMIYQVNKRASGVPDRFSGSKSGNTASLTISGLQAEDEADYYCASYRSSDHNIVFGGGTKLTVLGGGGSGGGGSGGGGSEVQLVESGGGLVQPGGSLRLSCAASGFTFSSYAMSWVRQAPGKGLEWVSTINSGTGSPYYADSVKGRFTISRDNSKNTLYLQMNSLRAEDTAVYYCAKNFFDGSWFLGPPAMDYWGQGTLVTVSSHHHHHH
notes: AS170036 VL1VH1 scFv mutein
Kd [1]: 930 nM | Affinity increase [2]: 0.3 fold

B10: LY34D (scFv)
scFv: QSALTQPRSVSGSPGQSVTISCAGTSSDVGSENDVSWYQQHPGKAPKLMIYQVNKRASGVPDRFSGSKSGNTASLTISGLQAEDEADYYCASYRSSDHNIVFGGGTKLTVLGGGGSGGGGSGGGGSEVQLVESGGGLVQPGGSLRLSCAASGFTFSSYAMSWVRQAPGKGLEWVSTINSGTGSPYYADSVKGRFTISRDNSKNTLYLQMNSLRAEDTAVYYCAKNFFDGSWFLGPPAMDYWGQGTLVTVSSHHHHHH
notes: AS170036 VL1VH1 scFv mutein
Kd [1]: 740 nM | Affinity increase [2]: 0.3 fold

B12: LH98K (scFv)
scFv: QSALTQPRSVSGSPGQSVTISCAGTSSDVGSENYVSWYQQHPGKAPKLMIYQVNKRASGVPDRFSGSKSGNTASLTISGLQAEDEADYYCASYRSSDKNIVFGGGTKLTVLGGGGSGGGGSGGGGSEVQLVESGGGLVQPGGSLRLSCAASGFTFSSYAMSWVRQAPGKGLEWVSTINSGTGSPYYADSVKGRFTISRDNSKNTLYLQMNSLRAEDTAVYYCAKNFFDGSWFLGPPAMDYWGQGTLVTVSSHHHHHH
notes: AS170036 VL1VH1 scFv mutein
Kd [1]: 1100 nM | Affinity increase [2]: 0.2 fold

B16: LE32T (scFv)
scFv: QSALTQPRSVSGSPGQSVTISCAGTSSDVGSTNYVSWYQQHPGKAPKLMIYQVNKRASGVPDRFSGSKSGNTASLTISGLQAEDEADYYCASYRSSDHNIVFGGGTKLTVLGGGGSGGGGSGGGGSEVQLVESGGGLVQPGGSLRLSCAASGFTFSSYAMSWVRQAPGKGLEWVSTINSGTGSPYYADSVKGRFTISRDNSKNTLYLQMNSLRAEDTAVYYCAKNFFDGSWFLGPPAMDYWGQGTLVTVSSHHHHHH
notes: AS170036 VL1VH1 scFv mutein
Kd [1]: 770 nM | Affinity increase [2]: 0.3 fold

B18: LE32N (scFv)
scFv: QSALTQPRSVSGSPGQSVTISCAGTSSDVGSNNYVSWYQQHPGKAPKLMIYQVNKRASGVPDRFSGSKSGNTASLTISGLQAEDEADYYCASYRSSDHNIVFGGGTKLTVLGGGGSGGGGSGGGGSEVQLVESGGGLVQPGGSLRLSCAASGFTFSSYAMSWVRQAPGKGLEWVSTINSGTGSPYYADSVKGRFTISRDNSKNTLYLQMNSLRAEDTAVYYCAKNFFDGSWFLGPPAMDYWGQGTLVTVSSHHHHHH
notes: AS170036 VL1VH1 scFv mutein
Kd [1]: 690 nM | Affinity increase [2]: 0.4 fold

B19: LE32Q (scFv)
scFv: QSALTQPRSVSGSPGQSVTISCAGTSSDVGSQNYVSWYQQHPGKAPKLMIYQVNKRASGVPDRFSGSKSGNTASLTISGLQAEDEADYYCASYRSSDHNIVFGGGTKLTVLGGGGSGGGGSGGGGSEVQLVESGGGLVQPGGSLRLSCAASGFTFSSYAMSWVRQAPGKGLEWVSTINSGTGSPYYADSVKGRFTISRDNSKNTLYLQMNSLRAEDTAVYYCAKNFFDGSWFLGPPAMDYWGQGTLVTVSSHHHHHH
notes: AS170036 VL1VH1 scFv mutein
Kd [1]: 570 nM | Affinity increase [2]: 0.4 fold

The remaining lines, values ahead:

Kd [1]: 730 nM | Affinity increase [2]: 0.3 fold
B2: LY34L (scFv)
scFv: QSALTQPRSVSGSPGQSVTISCAGTSSDVGSENLVSWYQQHPGKAPKLMIYQVNKRASGVPDRFSGSKSGNTASLTISGLQAEDEADYYCASYRSSDHNIVFGGGTKLTVLGGGGSGGGGSGGGGSEVQLVESGGGLVQPGGSLRLSCAASGFTFSSYAMSWVRQAPGKGLEWVSTINSGTGSPYYADSVKGRFTISRDNSKNTLYLQMNSLRAEDTAVYYCAKNFFDGSWFLGPPAMDYWGQGTLVTVSSHHHHHH
notes: AS170036 VL1VH1 scFv mutein

Kd [1]: 1800 nM | Affinity increase [2]: 0.1 fold
B7: LY34I (scFv)
scFv: QSALTQPRSVSGSPGQSVTISCAGTSSDVGSENIVSWYQQHPGKAPKLMIYQVNKRASGVPDRFSGSKSGNTASLTISGLQAEDEADYYCASYRSSDHNIVFGGGTKLTVLGGGGSGGGGSGGGGSEVQLVESGGGLVQPGGSLRLSCAASGFTFSSYAMSWVRQAPGKGLEWVSTINSGTGSPYYADSVKGRFTISRDNSKNTLYLQMNSLRAEDTAVYYCAKNFFDGSWFLGPPAMDYWGQGTLVTVSSHHHHHH
notes: AS170036 VL1VH1 scFv mutein

Kd [1]: 1400 nM | Affinity increase [2]: 0.2 fold
B11: LY34P (scFv)
scFv: QSALTQPRSVSGSPGQSVTISCAGTSSDVGSENPVSWYQQHPGKAPKLMIYQVNKRASGVPDRFSGSKSGNTASLTISGLQAEDEADYYCASYRSSDHNIVFGGGTKLTVLGGGGSGGGGSGGGGSEVQLVESGGGLVQPGGSLRLSCAASGFTFSSYAMSWVRQAPGKGLEWVSTINSGTGSPYYADSVKGRFTISRDNSKNTLYLQMNSLRAEDTAVYYCAKNFFDGSWFLGPPAMDYWGQGTLVTVSSHHHHHH
notes: AS170036 VL1VH1 scFv mutein

Kd [1]: 1700 nM | Affinity increase [2]: 0.1 fold
B13: LY34G (scFv)
scFv: QSALTQPRSVSGSPGQSVTISCAGTSSDVGSENGVSWYQQHPGKAPKLMIYQVNKRASGVPDRFSGSKSGNTASLTISGLQAEDEADYYCASYRSSDHNIVFGGGTKLTVLGGGGSGGGGSGGGGSEVQLVESGGGLVQPGGSLRLSCAASGFTFSSYAMSWVRQAPGKGLEWVSTINSGTGSPYYADSVKGRFTISRDNSKNTLYLQMNSLRAEDTAVYYCAKNFFDGSWFLGPPAMDYWGQGTLVTVSSHHHHHH
notes: AS170036 VL1VH1 scFv mutein

Kd [1]: 780 nM | Affinity increase [2]: 0.3 fold
B14: LY34F (scFv)
scFv: QSALTQPRSVSGSPGQSVTISCAGTSSDVGSENFVSWYQQHPGKAPKLMIYQVNKRASGVPDRFSGSKSGNTASLTISGLQAEDEADYYCASYRSSDHNIVFGGGTKLTVLGGGGSGGGGSGGGGSEVQLVESGGGLVQPGGSLRLSCAASGFTFSSYAMSWVRQAPGKGLEWVSTINSGTGSPYYADSVKGRFTISRDNSKNTLYLQMNSLRAEDTAVYYCAKNFFDGSWFLGPPAMDYWGQGTLVTVSSHHHHHH
notes: AS170036 VL1VH1 scFv mutein

Kd [1]: 1100 nM | Affinity increase [2]: 0.2 fold
B15: LY34M (scFv)
scFv: QSALTQPRSVSGSPGQSVTISCAGTSSDVGSENMVSWYQQHPGKAPKLMIYQVNKRASGVPDRFSGSKSGNTASLTISGLQAEDEADYYCASYRSSDHNIVFGGGTKLTVLGGGGSGGGGSGGGGSEVQLVESGGGLVQPGGSLRLSCAASGFTFSSYAMSWVRQAPGKGLEWVSTINSGTGSPYYADSVKGRFTISRDNSKNTLYLQMNSLRAEDTAVYYCAKNFFDGSWFLGPPAMDYWGQGTLVTVSSHHHHHH
notes: AS170036 VL1VH1 scFv mutein

Kd [1]: 1000 nM | Affinity increase [2]: 0.2 fold
B17: LY34S (scFv)
scFv: QSALTQPRSVSGSPGQSVTISCAGTSSDVGSENSVSWYQQHPGKAPKLMIYQVNKRASGVPDRFSGSKSGNTASLTISGLQAEDEADYYCASYRSSDHNIVFGGGTKLTVLGGGGSGGGGSGGGGSEVQLVESGGGLVQPGGSLRLSCAASGFTFSSYAMSWVRQAPGKGLEWVSTINSGTGSPYYADSVKGRFTISRDNSKNTLYLQMNSLRAEDTAVYYCAKNFFDGSWFLGPPAMDYWGQGTLVTVSSHHHHHH
notes: AS170036 VL1VH1 scFv mutein
